For one molecule, Kd, koff and kon results are on record in article PMC8290868 (Cell Discovery, 2021).

In general, Kd refers to the constant that tells how readily two partners part at equilibrium. A high value points to lower affinity. As a reminder, the koff is a measure of how fast the partners let go of each other. As a reminder, the kon is the rate constant with which the complex forms. Low readings indicate slow association, high ones fast association.

This experiment has as its target SARS-CoV-2 spike receptor-binding domain (RBD), wild type (Severe acute respiratory syndrome …, UniProt P0DTC2). Description: SPR. Conditions: both partners purified.

B1: 7B8, recombinant fully human IgG1 (antibody, V domains shown)
VH: QVQLVESGGGVVQPGRSLRLSCAASGFIFSSYGMHWVRQAPGKGLEWVAVIWFDGSNKYYADSVKGRFTISRDNSKNTLYLQMNSLRAEDTAVYYCARETVSYGMDVWGQGTTVTVSS
VL: NIQMTQSPSAMSASVGDRVTITCRARQGISNYLAWFQQKPGKVPKHLIYAASSLLSGVPSRFSGSGSETEFTLTISSLQPEDFATYYCLQHNSYPYTFGQGTKLEIK
notes: also called Ab4; source: ExpiCHO-S, transient expression, purified (protein A)
Take B1: the Kd was 0.523 nM, the koff was determined as 9.55e-05 s⁻¹ and the kon is 182000 M⁻¹ s⁻¹.
